Measured values as given in the supplement of paper PMC7877785.
± gives the uncertainty stated by the source.

Test: self-splicing fitness, log relative to wild type (ln ratio); higher = more splicing; Tetrahymena group I intron in knt gene, E. coli kanamycin selection, DiMSum; sequences stand for … in CUCUCU…GGAGGGAAAAGUUAUCAGGCAUGCACCUGGUAGCUAGUCUUUAAACCAAUAGAUUGCAUCGGUUUAAAAGGCAAGACCGUCAAAUUGCGGGAAAGGGGUCAACAGCCGUUCAGUACCAAGUCUCAGGGGAAACUUUGAGAUGGCCUUGCAAAGGGUAUGGUAAUAAGCUGACGGACAUGGUCCUAACCACGCAGCCAAGUCCUAAGUCAACAGAUCUUCUGUUGAUAUGGAUGCAGUUCACAGACUAAAUGUCGGUCGGGGAAGAUGUAUUCUUCUCAUAAGAUAUAGUCGGACCUCUCCUUAAUGGGAGCUAGCGGAUGAAGUGAUGCAACACUGGAGCCGCUGGGAACUAAUUUGUAUGCGAAAGUAUAUUGAUUAGUUUUGGAGUACUCGUGGUCG
How it was run: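 A randomised library covering all eight P1ex-region intron nucleotides was built with the intron in the knt kanamycin-resistance gene on pET-22b(+) and held in E. coli BL21(DE3). Cells were grown overnight at 37°C or 30°C on LB agar, with or without 25 μg/mL kanamycin, plus 100 μg/mL carbenicillin, 50 μM IPTG and 0.2% rhamnose, and pooled colonies were amplicon-sequenced on an Illumina HiSeq 2500. DiMSum fitness is the error-weighted combination of wild-type-normalised replicate fold changes, kanamycin versus none.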

## AGAGAGCAAUAUUACGUUGA
30 °C
  self-splicing fitness (ln): -2.77 ± 0.23
37 °C
  self-splicing fitness (ln): -2.06 ± 0.26

## AGAUAGCAAUAUUACGAAUA
30 °C
  self-splicing fitness (ln): -2.76 ± 0.49
37 °C
  self-splicing fitness (ln): -2.16 ± 0.48

## AGAUAGCAAUAUUACGAAUU
30 °C
  self-splicing fitness (ln): -2.43 ± 0.15
37 °C
  self-splicing fitness (ln): -1.25 ± 0.16

## AGAUAGCAAUAUUACGAGAC
30 °C
  self-splicing fitness (ln): -3.94 ± 0.23
37 °C
  self-splicing fitness (ln): -2.96 ± 0.22

## AGAUAGCAAUAUUACGAGCA
30 °C
  self-splicing fitness (ln): -0.984 ± 0.1
37 °C
  self-splicing fitness (ln): -0.95 ± 0.11

## AGAUAGCAAUAUUACGAUCA
30 °C
  self-splicing fitness (ln): -0.325 ± 0.089
37 °C
  self-splicing fitness (ln): -0.00339 ± 0.11

## AGAUAGCAAUAUUACGCCAG
30 °C
  self-splicing fitness (ln): -3.6 ± 0.5
37 °C
  self-splicing fitness (ln): -1.78 ± 0.39

## AGAUAGCAAUAUUACGCGAA
30 °C
  self-splicing fitness (ln): -3.1 ± 0.28
37 °C
  self-splicing fitness (ln): -0.447 ± 0.17

## AGAUAGCAAUAUUACGCGCA
30 °C
  self-splicing fitness (ln): -0.594 ± 0.063
37 °C
  self-splicing fitness (ln): -0.129 ± 0.094

## AGAUAGCAAUAUUACGCUAC
30 °C
  self-splicing fitness (ln): -2.97 ± 0.44
37 °C
  self-splicing fitness (ln): -2.56 ± 0.38

## AGAUAGCAAUAUUACGCUCC
37 °C
  self-splicing fitness (ln): 0.0911 ± 0.49

## AGAUAGCAAUAUUACGCUGU
30 °C
  self-splicing fitness (ln): -3.36 ± 0.25
37 °C
  self-splicing fitness (ln): -3.22 ± 0.4

## AGAUAGCAAUAUUACGGACA
30 °C
  self-splicing fitness (ln): -0.869 ± 0.15
37 °C
  self-splicing fitness (ln): -0.224 ± 0.16

## AGAUAGCAAUAUUACGGAUU
30 °C
  self-splicing fitness (ln): -1.39 ± 0.1
37 °C
  self-splicing fitness (ln): 0.228 ± 0.13

## AGAUAGCAAUAUUACGGCAU
30 °C
  self-splicing fitness (ln): -0.734 ± 0.11
37 °C
  self-splicing fitness (ln): 0.242 ± 0.12

## AGAUAGCAAUAUUACGGCUA
30 °C
  self-splicing fitness (ln): 0.0313 ± 0.1
37 °C
  self-splicing fitness (ln): 0.162 ± 0.098

## AGAUAGCAAUAUUACGGGAG
30 °C
  self-splicing fitness (ln): -2.43 ± 0.26
37 °C
  self-splicing fitness (ln): -1.95 ± 0.23

## AGAUAGCAAUAUUACGGGUU
30 °C
  self-splicing fitness (ln): -2.78 ± 0.2
37 °C
  self-splicing fitness (ln): -2.29 ± 0.25

## AGAUAGCAAUAUUACGGUUC
30 °C
  self-splicing fitness (ln): -1.77 ± 0.12
37 °C
  self-splicing fitness (ln): -0.791 ± 0.19

## AGAUAGCAAUAUUACGUAAG
30 °C
  self-splicing fitness (ln): -1.31 ± 0.065
37 °C
  self-splicing fitness (ln): -1.44 ± 0.088

## AGAUAGCAAUAUUACGUAAU
30 °C
  self-splicing fitness (ln): -1.52 ± 0.11
37 °C
  self-splicing fitness (ln): -0.657 ± 0.12

## AGAUAGCAAUAUUACGUAUG
30 °C
  self-splicing fitness (ln): -2.57 ± 0.15
37 °C
  self-splicing fitness (ln): -2.3 ± 0.17

## AGAUAGCAAUAUUACGUCAU
30 °C
  self-splicing fitness (ln): -1.89 ± 0.097
37 °C
  self-splicing fitness (ln): -0.716 ± 0.096

## AGAUAGCAAUAUUACGUCUC
30 °C
  self-splicing fitness (ln): -3.01 ± 0.21
37 °C
  self-splicing fitness (ln): -3.05 ± 0.4

## AGAUAGCAAUAUUACGUGAU
30 °C
  self-splicing fitness (ln): -1.92 ± 0.11
37 °C
  self-splicing fitness (ln): -0.886 ± 0.11

## AGAUAGCAAUAUUACGUUAC
30 °C
  self-splicing fitness (ln): -2.05 ± 0.48

## AGAUAGCAAUAUUACGUUAU
30 °C
  self-splicing fitness (ln): -3.23 ± 0.17
37 °C
  self-splicing fitness (ln): -3.55 ± 0.25

## AGCAAGCAAUAUUACGAAAG
30 °C
  self-splicing fitness (ln): -2.4 ± 0.23
37 °C
  self-splicing fitness (ln): -1.36 ± 0.22

## AGCAAGCAAUAUUACGAGGC
30 °C
  self-splicing fitness (ln): -4.52 ± 0.34
37 °C
  self-splicing fitness (ln): -2.51 ± 0.23

## AGCAAGCAAUAUUACGAUAC
37 °C
  self-splicing fitness (ln): -1.72 ± 0.46

## AGCAAGCAAUAUUACGCAUU
30 °C
  self-splicing fitness (ln): -2.57 ± 0.17
37 °C
  self-splicing fitness (ln): -1.45 ± 0.19

## AGCAAGCAAUAUUACGGACC
30 °C
  self-splicing fitness (ln): 0.36 ± 0.2
37 °C
  self-splicing fitness (ln): -0.517 ± 0.22

## AGCAAGCAAUAUUACGGCAA
30 °C
  self-splicing fitness (ln): -0.272 ± 0.069
37 °C
  self-splicing fitness (ln): -0.342 ± 0.086

## AGCAAGCAAUAUUACGGCAG
30 °C
  self-splicing fitness (ln): -0.65 ± 0.065
37 °C
  self-splicing fitness (ln): -0.357 ± 0.082

## AGCAAGCAAUAUUACGUACC
30 °C
  self-splicing fitness (ln): -0.796 ± 0.078
37 °C
  self-splicing fitness (ln): 0.398 ± 0.097

## AGCAAGCAAUAUUACGUAGA
30 °C
  self-splicing fitness (ln): -2.83 ± 0.15
37 °C
  self-splicing fitness (ln): -2.44 ± 0.2

## AGCAAGCAAUAUUACGUGCA
30 °C
  self-splicing fitness (ln): -0.675 ± 0.058
37 °C
  self-splicing fitness (ln): 0.058 ± 0.077

## AGCAAGCAAUAUUACGUGUC
30 °C
  self-splicing fitness (ln): -3.85 ± 0.23
37 °C
  self-splicing fitness (ln): -2.44 ± 0.17

## AGCAAGCAAUAUUACGUGUG
30 °C
  self-splicing fitness (ln): -2.9 ± 0.1
37 °C
  self-splicing fitness (ln): -1.17 ± 0.081

## AGCAAGCAAUAUUACGUUUG
30 °C
  self-splicing fitness (ln): -4.51 ± 0.22
37 °C
  self-splicing fitness (ln): -2.76 ± 0.18

## AGCCAGCAAUAUUACGAACG
30 °C
  self-splicing fitness (ln): -3.24 ± 0.27
37 °C
  self-splicing fitness (ln): -2.97 ± 0.37

## AGCCAGCAAUAUUACGAAGC
30 °C
  self-splicing fitness (ln): -1.65 ± 0.22
37 °C
  self-splicing fitness (ln): -1.96 ± 0.37

## AGCCAGCAAUAUUACGACUU
30 °C
  self-splicing fitness (ln): -1.6 ± 0.1
37 °C
  self-splicing fitness (ln): -0.895 ± 0.12

## AGCCAGCAAUAUUACGAGAU
30 °C
  self-splicing fitness (ln): -3.39 ± 0.18
37 °C
  self-splicing fitness (ln): -2.28 ± 0.2

## AGCCAGCAAUAUUACGAUCA
37 °C
  self-splicing fitness (ln): -2.69 ± 0.32

## AGCCAGCAAUAUUACGCAAG
30 °C
  self-splicing fitness (ln): -3.8 ± 0.34
37 °C
  self-splicing fitness (ln): -2.98 ± 0.4

## AGCCAGCAAUAUUACGCAUA
30 °C
  self-splicing fitness (ln): -2.21 ± 0.15
37 °C
  self-splicing fitness (ln): -1.34 ± 0.16

## AGCCAGCAAUAUUACGCCCC
30 °C
  self-splicing fitness (ln): -1.54 ± 0.24
37 °C
  self-splicing fitness (ln): 0.277 ± 0.32

## AGCCAGCAAUAUUACGCUAA
30 °C
  self-splicing fitness (ln): -2.53 ± 0.18
37 °C
  self-splicing fitness (ln): -0.465 ± 0.12
